The values below come from patent US20040260068A1 (published 2004).

For assay [1], the target named is T1, mouse IL-12 (mouse, UniProt P43431 23-215; P43432 23-335).
T1 sequence (looked up) 1: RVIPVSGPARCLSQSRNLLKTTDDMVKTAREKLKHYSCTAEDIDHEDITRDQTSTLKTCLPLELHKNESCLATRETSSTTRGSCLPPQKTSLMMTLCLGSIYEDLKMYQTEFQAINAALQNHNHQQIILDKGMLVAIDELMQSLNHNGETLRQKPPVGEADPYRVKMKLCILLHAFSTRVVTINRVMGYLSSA
T1 sequence (looked up) 2: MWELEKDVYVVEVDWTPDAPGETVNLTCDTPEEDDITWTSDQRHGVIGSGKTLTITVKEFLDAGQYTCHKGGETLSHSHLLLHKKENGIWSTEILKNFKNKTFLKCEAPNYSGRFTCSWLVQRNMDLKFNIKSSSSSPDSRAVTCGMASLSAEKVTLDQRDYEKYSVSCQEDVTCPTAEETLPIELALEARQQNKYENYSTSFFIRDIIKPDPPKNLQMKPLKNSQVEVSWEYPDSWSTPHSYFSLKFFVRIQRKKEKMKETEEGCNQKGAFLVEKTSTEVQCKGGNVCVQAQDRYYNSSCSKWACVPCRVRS
Put plainly: competition ELISA on coated mouse IL-12; competitor of biotinylated ChDD2. The protocol: MaxiSorp plates (Nalge Nunc, Rochester N.Y.) were coated with 0.1 μg/ml human or mouse IL-12. […] ELISA plates were incubated at room temperature for 2 hr. After washing the wells with Washing Buffer, 0.5 μg/ml HRP-conjugated streptavidin (Pierce) was added to each well. Color development was performed with TMB substrate (Kirkegaard & Perry Laboratories).
(An ELISA detects its analyte on a solid surface through an enzyme-linked reagent.)

In assay [2] the target is T2, human IL-12 (human, UniProt P29459 23-219; P29460 23-328).
T2 construct: also called human IL-12 p70 heterodimer; IL-12 p75
T2 sequence (looked up) 1: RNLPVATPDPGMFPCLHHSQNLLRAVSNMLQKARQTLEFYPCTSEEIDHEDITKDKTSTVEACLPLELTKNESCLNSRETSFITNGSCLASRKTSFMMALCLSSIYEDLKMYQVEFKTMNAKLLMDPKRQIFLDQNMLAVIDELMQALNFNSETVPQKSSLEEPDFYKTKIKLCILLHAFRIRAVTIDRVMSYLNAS
T2 sequence (looked up) 2: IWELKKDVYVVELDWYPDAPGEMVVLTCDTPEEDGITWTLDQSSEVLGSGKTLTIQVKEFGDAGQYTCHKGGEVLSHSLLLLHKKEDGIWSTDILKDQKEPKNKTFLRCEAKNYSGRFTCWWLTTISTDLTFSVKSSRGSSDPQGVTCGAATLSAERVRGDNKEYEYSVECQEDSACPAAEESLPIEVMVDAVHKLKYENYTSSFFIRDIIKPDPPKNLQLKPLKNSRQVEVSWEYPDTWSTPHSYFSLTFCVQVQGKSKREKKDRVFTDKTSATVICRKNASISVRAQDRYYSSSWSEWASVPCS
As to the kind of experiment: competition ELISA on coated human IL-12; competitor of biotinylated ChDD2. As to the method: (§1) ELISA plates were incubated at room temperature for 2 hr. After washing the wells with Washing Buffer, 0.5 μg/ml HRP-conjugated streptavidin (Pierce) was added to each well. Color development was performed with TMB substrate (Kirkegaard & Perry Laboratories).

Assay [3] concerns the target T1, mouse IL-12. As to the kind of experiment: competitive binding assay (competition ELISA). As to the method:
(§2) MaxiSorp plates were coated with 100 μl of 0.1 μg/ml human or mouse IL-12 (R&D) and blocked with Superblock blocking buffer. […] As a background control, 100 μl of ELISA Buffer was used. ELISA plates were incubated at room temperature for 2 hr. After washing the wells with Washing Buffer (PBS containing 0.1 % Tween 20), 100 μl of 1 μg/ml HRP-conjugated streptavidin (Pierce) in ELISA buffer was added to each well. ELISA plates were incubated at room temperature for 30 min and washed with Washing Buffer. For color development, 100 μI/well of ABTS substrate was added. Color development was stopped by adding 100 μl/well of 2% oxalic acid. Absorbance was read at 415 nm.

In assay [4] the target is T2, human IL-12. As to the kind of experiment: competition ELISA on coated human IL-12; competitor of biotinylated humanized B1. As to the method: as §2
Assay [5] has as its target T1, mouse IL-12. As to the kind of experiment: competition ELISA on coated mouse IL-12. As to the method: as §2
The target in assay [6] is T2, human IL-12. As to the kind of experiment: competition ELISA on coated human IL-12. As to the method: as §1
Assay [7] deals with T1, mouse IL-12. As to the kind of experiment: competition ELISA on coated mouse IL-12; competitor of biotinylated humanized B1. As to the method: as §2
For a further assay, the target named is T3, bovine albumin (bovine, UniProt P02769 25-607).
T3 construct: Control antigen
T3 sequence (P02769 25-607 limits assumed): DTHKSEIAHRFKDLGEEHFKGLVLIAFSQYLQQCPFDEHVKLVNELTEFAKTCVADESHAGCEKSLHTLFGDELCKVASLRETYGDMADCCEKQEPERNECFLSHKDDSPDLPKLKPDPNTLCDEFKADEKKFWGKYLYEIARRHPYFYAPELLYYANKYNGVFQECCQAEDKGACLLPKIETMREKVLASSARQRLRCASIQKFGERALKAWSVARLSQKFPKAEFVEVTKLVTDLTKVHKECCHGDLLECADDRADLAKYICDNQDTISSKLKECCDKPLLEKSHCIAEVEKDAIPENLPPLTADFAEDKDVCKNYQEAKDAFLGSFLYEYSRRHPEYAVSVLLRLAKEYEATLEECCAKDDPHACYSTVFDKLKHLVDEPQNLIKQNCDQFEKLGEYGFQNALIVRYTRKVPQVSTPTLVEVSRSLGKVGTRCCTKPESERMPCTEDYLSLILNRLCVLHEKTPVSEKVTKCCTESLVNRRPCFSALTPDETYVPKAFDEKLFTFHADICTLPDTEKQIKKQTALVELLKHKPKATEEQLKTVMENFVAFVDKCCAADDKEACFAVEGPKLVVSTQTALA
As to the kind of experiment: ELISA on coated protein. As to the method:
(§3) For binding to various proteins, ELISA plates were coated with chicken lysozyme (Sigma), human globin (Sigma), bovine albumin (Sigma), and concanavalin A (Pharmacia) as well as human and mouse IL-12 (R&D) at 0.1 μg/ml in 0.2 M sodium carbonate buffer (pH 9.4) and blocked with SuperBlock buffer (Pierce).

A further assay addresses T4, concanavalin A (UniProt P02866 30-281).
T4 construct: Control antigen
As to the kind of experiment: ELISA on coated protein. The protocol:
as §3

A further assay has as its target T5, chicken lysozyme (chicken, UniProt P00698 19-147).
T5 construct: Control antigen; also called hen egg lysozyme
As to the kind of experiment: ELISA on coated protein. The protocol: as §3

Where a chain is given by its changes, count along the chain named. Names and notes keep the numbering of the source. Values joined by “and” are separate entries in the source; they are usually repeats but may differ in a detail not shown here. Equal values may be shown once.

T5 sequence (P00698 19-147): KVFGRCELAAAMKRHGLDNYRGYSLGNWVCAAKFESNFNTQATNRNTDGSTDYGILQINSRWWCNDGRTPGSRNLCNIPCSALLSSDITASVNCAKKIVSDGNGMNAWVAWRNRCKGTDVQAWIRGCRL

B1: chicken-human chimeric anti-IL-12 antibody DD2 (antibody, V domains shown)
VH: AVTLDESGGGLQTPGGGLSLVCKASGFDFSNYQLQWVRQAPGKGLEWVGGIGSSGSSTYYGAAVKGRATISRDNGQSTVRLQLNNLRAEDTGTYYCTRGVSPYSCWYAGRTSYTCHAYTAGSIDAWGHGTEVIVSS
VL: ALTQPASVSANPGETVKITCPGGGIYAGRYYGYGWFQQKSPGSAPVTVIYSNDKRPSDIPSRFSGSASGSTATLTITGVQADDEAVYFCGSHDSNVGVFGAGTTLTVL
notes: made in Sp2/0; also called ChDD2; chimeric DD2
The term IC50 denotes the midpoint of a concentration-inhibition curve. High values mean weaker potency in that assay, low ones greater potency in that assay. As for B1, the IC50 was determined as 2.4 µg/mL with mouse IL-12 [1] and 4 µg/mL in the assay with human IL-12 [2].

B2: humanized B1 IgG1/λ monoclonal antibody (antibody, V domains shown)
VH: EVQLVESGGGLVQPGGSLRLSCAASGFTFSSYSMLWVRQAPGKGLEYVAEITNTGRTRRYGAAVKGRATISRDNAKNTVYLQMNSLRAEDTAVYYCARSSVYSCSYGWCAGNINAWGQGTLVTVSS
VL: SSELTQPPSVSVALGQTVRITCSGGYSGYYGWYQQKPGQAPVTVIYDNTRRPSDIPSRFSGSKSGSTATLTITGVQAEDEADYYCGTWDSSRVGIFGGGTKLTVL
notes: made in Sp2/0; also called HuB1
In the case of B2, the “fold better affinity than chimeric B1” value with mouse IL-12 [3] was about 2 fold. Moreover, the figures for the IC50 in the assay with human IL-12 [4] and with mouse IL-12 [7] were 5.8 µg/mL and 6.2 µg/mL, respectively. For the same molecule, the “fold decrease in relative binding against chimeric B1 (fold)” value with mouse IL-12 [5] is about 2.1 fold. For the same molecule, in the assay with human IL-12 [6], the “fold better binding than chimeric B1” value was about 1.4 fold. Besides, the binding result with bovine albumin, with concanavalin A and with chicken lysozyme was “no binding (tested: 0.01 µg/ml antibody)” each time.

B3: chimeric B1 IgG1/λ antibody (chicken-human chimeric anti-IL-12 antibody B1) (antibody, V domains shown)
VH: AVTLDESGGGLQTPGGALSLVCKASGFTFSSYSMLWVRQAPGKGLEYVAEITNTGRTRRYGAAVKGRATISRDNGQSTVRLQLNNLRAEDTGTYYCARSSVYSCSYGWCAGNINAWGHGTEVIVSS
VL: ALTQPASVSANLGGTVKITCSGGYSGYYGWYQQKSPGSAPVTVIYDNTRRPSDIPSRFSGSKSGSTATLTITGVQADDEAVYFCGTWDSSRVGIFGAGTTLTVL
notes: made in Sp2/0; also called ChB1
Take B3: the values for the IC50 in the assay with human IL-12 [4] and with mouse IL-12 [7] were 8.3 µg/mL and 13 µg/mL, respectively. Besides, the binding result with bovine albumin, in the assay with concanavalin A and in the assay with chicken lysozyme was “no binding (tested: 0.01 µg/ml antibody)” throughout.

B4: humanized DD2 IgG1/λ monoclonal antibody (antibody, V domains shown)
VH: EVQLVESGGGLVQPGGSLRLSCAASGFDFSNYQLQWVRQAPGKGLEWVGGIGSSGSSTYYGAAVKGRATISRDNAKNSVYLQMNSLRAEDTAVYYCTRGVSPYSCWYAGRTSYTCHAYTAGSIDAWGQGTLVTVSS
VL: SSELTQDPAVSVALGQTVRITCPGGGIYAGRYYGYGWFQQKPGQAPVTVIYSNDKRPSDIPSRFSGSASGSTASLTITGAQAEDEADYYCGSHDSNVGVFGGGTKLTVL
notes: also called HuDD2; wild-type HuDD2
Take B4: the IC50 is 2.4 µg/mL with mouse IL-12 [1]; 4.2 µg/mL and 3.5 µg/mL with human IL-12 [2].

B5: HuDD2 Vλ T46L mutant (antibody, IgG1, V domains shown)
VH: B4 VH
VL: B4 VL with T48L
notes: IgG1/λ as HuDD2; Kabat numbering
On to B5, for which the IC50 with human IL-12 [2] is 16.1 µg/mL. The “fold reduction of binding affinity against wild-type HuDD2” value with human IL-12 [6] stood at 4.6 fold.

B6: HuDD2 VH T93A mutant (antibody, IgG1, name in Kabat numbering, V domains shown)
VH: B4 VH with T97A
VL: B4 VL
notes: as for B5
Molecule B6 returned an IC50 in the assay with human IL-12 [2] of 3.3 µg/mL.

B7: HuDD2 VH V78L mutant (antibody, IgG1, name in Kabat numbering, V domains shown)
VH: B4 VH with V79L
VL: B4 VL
notes: IgG1/λ as HuDD2; H78 (Kabat) is the position named as the one tested; also called V79L
In the assay with human IL-12 [2], B7 registered an IC50 of 7 µg/mL. Also, in the assay with human IL-12 [6], the “fold reduction of binding affinity against wild-type HuDD2” value stood at 2 fold.

B8: HuDD2 Vλ A66S mutant (antibody, IgG1, V domains shown)
VH: B4 VH
VL: B4 VL with A68S
notes: as for B5
The molecule B8 gave an IC50 with human IL-12 [2] of 3.4 µg/mL.

B9: HuDD2 VH A67F mutant (antibody, IgG1, name in Kabat numbering, V domains shown)
VH: B4 VH with A68F
VL: B4 VL
notes: IgG1/λ as HuDD2
On to B9, for which the IC50 in the assay with human IL-12 [2] stood at 2.1 µg/mL.

B10: HuDD2 Vλ S69N mutant (antibody, IgG1, V domains shown)
VH: B4 VH
VL: B4 VL with S71N
notes: as for B5
On to B10, for which, in the assay with human IL-12 [2], the IC50 was determined as 4.3 µg/mL.
